The assay has as its target Human complement component C5 (human) (UniProt P01031). Briefly: cell-based or functional assay.

The values that follow come from patent US20090215195A1.

“Recombinant SET1 (SSL7), allele from Staphylococcus aureus clinical isolate GL1” registered an SET1 concentration at maximum survival of E. coli in human serum of 2.1 nM and a surviving E. coli cells in human serum, maximum level of 14%.
